Data: US20190100594A1 (INHIBRX, published 2019)
Like-named read-outs stand apart in the source and are kept apart here. Each block holds one binder with its values, some of them ahead of it.

Assays:
[1] = molecular target: T1, GITR expressed on CHO cells (Homo sapiens (Human), UniProt Q9Y5U5 26-241); test: flow cytometry competition on GITR-expressing CHO cells; blocked ligand recombinant GITRL; readout GITRL bound, MFI-FL1
T1 construct: also called glucocorticoid-induced TNFR-related protein; TNFRSF18
T1 sequence: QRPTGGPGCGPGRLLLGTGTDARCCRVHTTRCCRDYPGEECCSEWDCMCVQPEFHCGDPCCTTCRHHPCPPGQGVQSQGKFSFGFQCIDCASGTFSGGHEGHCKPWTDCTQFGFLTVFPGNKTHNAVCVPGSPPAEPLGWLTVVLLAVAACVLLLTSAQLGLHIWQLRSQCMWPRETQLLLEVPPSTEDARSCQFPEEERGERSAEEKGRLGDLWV
Source text: Briefly, in these studies, a flow cytometry assay using GITR expressing CHO cells and recombinant GITRL was used to implement to assess blocking capacity. The GITR antibody, TRX-518, was used as a control for these studies.

[2] = molecular target: T1, GITR expressed on CHO cells; test: flow cytometry on GITR-expressing CHO cells, MFI-FL4
human GITR-CHO [3] = molecular target: T2, human GITR-CHO (human, UniProt Q9Y5U5); test: flow cytometry on human GITR-CHO cells
T2 construct: expressed on the surface of CHO cells, construct not described; also called human GITR expressed on the surface of CHO cells
T2 sequence (looked up): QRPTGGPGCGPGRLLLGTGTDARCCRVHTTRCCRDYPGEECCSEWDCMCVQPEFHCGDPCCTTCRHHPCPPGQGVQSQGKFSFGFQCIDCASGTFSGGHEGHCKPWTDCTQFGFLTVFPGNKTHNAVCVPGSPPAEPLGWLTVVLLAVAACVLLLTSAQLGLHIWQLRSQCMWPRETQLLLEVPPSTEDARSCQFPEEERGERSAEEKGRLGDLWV

cyno GITR-CHO [4] = molecular target: T3, cyno GITR-CHO (cynomolgus monkey); test: flow cytometry on cyno GITR-CHO cells
T3 construct: expressed on the surface of CHO cells, construct not described; also called cynomolgus GITR expressed on the surface of CHO cells

cyno GITR-CHO [5] = molecular target: T3, cyno GITR-CHO; test: flow cytometry on cyno GITR-CHO cells; remark: listed apart in the source
human GITR-CHO [6] = molecular target: T2, human GITR-CHO; test: flow cytometry on human GITR-CHO cells; remark: listed apart in the source
human GITR-CHO [7] = molecular target: T2, human GITR-CHO; test: flow cytometry on human GITR-CHO cells; remark: listed apart in the source
cyno GITR-CHO [8] = molecular target: T3, cyno GITR-CHO; test: flow cytometry on cyno GITR-CHO cells; remark: listed apart in the source
human GITR-CHO [9] = molecular target: T2, human GITR-CHO; test: flow cytometry on human GITR-CHO cells; remark: listed apart in the source

B1: C06 (VHH, not shown: a dimerising Fc or GST; small tags and cut ends)
VHH: QVQLQESGGGLVQAGGSLRLSCAASGSVFSIDAMGWYRLAPGQQRELVAVLNGISSAKYADSVKGRFTISGDSAKNAVYLQMDGLKPEDTAVYYCYADVSTGWGRDAHGYWGQGTQVTVSS
IC50 (read off the curve) [1]: ~2 nM | EC50 (read off the curve) [2]: ~3 nM

B2: 2A1 (VHH, not shown: a dimerising Fc or GST; small tags and cut ends)
VHH: EVQLVQSGGGLVQPGGSLRLSCAASGNIFSIDAMGWYRQAPGRQRELVAQIPGGPTDSVKGRFTVSGNSAKNTGYLQMNTLKPEDTAVYYCNIVASTSWGSPSKVYWGQGTQATVSS
IC50 (read off the curve) [1]: ~10 nM | EC50 (read off the curve) [2]: ~10 nM

B3: F05 (VHH, not shown: a dimerising Fc or GST; small tags and cut ends)
VHH: QVQLVQSGGGLVQAGGSLRLSCTASGSIFSINHMAWYRQAPGKQREMVAHITGGASTKYADSVKGRFTISRDSALNTVSLRMNSLKPEDTAVYYCNAEVNEGWNADYYDVWGQGTQVTVSS
IC50 (read off the curve) [1]: ~4 nM | EC50 (read off the curve) [2]: ~4 nM

B4: hzCC04v5 (VHH)
VHH: EVQLLESGGGEVQPGGSLRLSCAASGFTFSTHGMDWFRQAPGKDLEWVSAIQSGGSWTSYASSVKGRFTISRDNAKNTLYLQMSSLRAEDTAVYWCQNRVTRGQGTLVTV
notes: also called hzC04v5
EC50 (read off the curve) (human GITR-CHO [3]): ~3 nM | EC50 (read off the curve) (cyno GITR-CHO [4]): ~2 nM

B8: hzCC04v1.2 (VHH)
VHH: EVQLLESGGGEVQPGGSLRLSCAASGFTFSTHGMDWFRQAPGKDLEWVSAINNGGSWTSYASSVKGRFTISRDNAKNTLYLQMSSLRAEDTAVYYCQNRVTRGQGTLVTV
notes: sheet prints hzCC04v1.2; also called hzC04v1.2
binding result (human GITR-CHO [7]): binds

B10: hzCC04v1 (VHH)
VHH: EVQLLESGGGEVQPGGSLRLSCAASGFTFSTHGMDWFRQAPGKDLEWVSAINNGGSWTSYASSVKGRFTISRDNAKNTLYLQMSSLRAEDTAVYWCQNRVTRGQGTLVTV
notes: sheet prints hzCC04v1; also called hzC04v1
binding result (human GITR-CHO [7]): binds

Results, then the binder that gave them:

EC50 (read off the curve) (cyno GITR-CHO [5]): ~2 nM | EC50 (read off the curve) (human GITR-CHO [6]): ~5 nM
B5: hzCC04v5.3 (VHH)
VHH: EVQLLESGGGEVQPGGSLRLSCAASGFTFSTHGMDWFRQAPGKDLEWVSAIQSGGSWTSYASSVKGRFTISRDNAKNTLYLEMSSLRAEDTAVYWCQNRVTRGQGTLVTV
notes: sheet prints hzCC04, text hzC04; also called hzC04v5.3

EC50 (read off the curve) (cyno GITR-CHO [5]): ~1 nM | EC50 (read off the curve) (human GITR-CHO [6]): ~4 nM
B6: hzCC04v5.2 (VHH)
VHH: EVQLLESGGGEVQPGGSLRLSCAASGFTFSTHGMDWFRQAPGKDLEWVSAIQSGGSWTSYASSVKGRFTISRDNAKNTLYLQMNNLRAEDTAVYWCQNRVTRGQGTLVTV
notes: sheet prints hzCC04, text hzC04; also called hzC04v5.2

EC50 (read off the curve) (human GITR-CHO [3]): ~2 nM | EC50 (read off the curve) (cyno GITR-CHO [4]): ~2 nM
B7: hzCC04v1.2.1 (VHH)
VHH: EVQLLESGGGEVQPGGSLRLSCAASGFTFSTHGMDWFRQAPGKDLEWVSAINQGGSWTSYASSVKGRFTISRDNAKNTLYLQMSSLRAEDTAVYYCQNRVTRGQGTLVTV
notes: also called hzC04v1.2.1

EC50 (read off the curve) (cyno GITR-CHO [5]): ~1 nM | EC50 (read off the curve) (human GITR-CHO [6]): ~4 nM
B9: hzCC04v5.4 (VHH)
VHH: EVQLLESGGGEVQPGGSLRLSCAASGFTFSTHGMDWFRQAPGKDLEWVSAIQSGGSWTSYASSVKGRFTISRDNAKNTLYLQMSSLRPEDTAVYWCQNRVTRGQGTLVTV
notes: sheet prints hzCC04, text hzC04; also called hzC04v5.4

EC50 (read off the curve) (cyno GITR-CHO [5]): ~2 nM | EC50 (read off the curve) (human GITR-CHO [6]): ~4 nM
B11: hzCC04v5.1 (VHH)
VHH: EVQLLESGGGEVQPGGSLRLSCAASGFTFSTHGMDWFRQAPGKDLEWVSAIQSGGSWTSYASSVKGRFTISRDNAKNTLYLEMNNLKPEDTAVYWCQNRVTRGQGTLVTV
notes: sheet prints hzCC04, text hzC04; also called hzC04v5.1

EC50 (read off the curve) (cyno GITR-CHO [8]): ~5 nM | EC50 (read off the curve) (human GITR-CHO [9]): ~4 nM
B12: hzC06v3.3 (VHH)
VHH: EVQLLESGGGEVQPGGSLRLSCAASGSVFSIDAMGWYRQAPGKQRELVAVLSGISSAKYAESVKGRFTISRDSAKNAVYLQMDGLKPEDTAVYYCYADVSTGWGRDAHGYWGQGTLVTV

EC50 (read off the curve) (cyno GITR-CHO [8]): ~4 nM | EC50 (read off the curve) (human GITR-CHO [9]): ~4 nM
B13: hzC06v3.6 (VHH)
VHH: EVQLLESGGGEVQPGGSLRLSCAASGSVFSIDAMGWYRQAPGKQRELVAVLSGISSAKYAESVKGRFTISRASAPNTVYLQMSSLRAEDTAVYYCYADVSTGWGRDAHGYWGQGTLVTV

EC50 (read off the curve) (cyno GITR-CHO [8]): ~5 nM | EC50 (read off the curve) (human GITR-CHO [9]): ~4 nM
B14: hzC06v3.4 (VHH)
VHH: EVQLLESGGGEVQPGGSLRLSCAASGSVFSIDAMGWYRQAPGKQRELVAVLSGISSAKYAESVKGRFTISRDNAKNTVYLQMSSLRAEDTAVYYCYADVSTGWGRDAHGYWGQGTLVTV
